# Measured values as given in article PMC9014876, “Vault RNA1–1 riboregulates the autophagic function of p62 by binding to lysine 7 and arginine 21, both of which are critical for p62 oligomerization”.
# B1: vault RNA1-1 WT (structured_RNA)
# RNA: GGCUGGCUUUAGCUCAGCGGUUACUUCGACAGUUCUUUAAUUGAAACAAGCAACCUGUCUGGGUUGUUCGAGACCCGCGGGCGCUCUCCAGUCCUUU
# Biological target: MBP-p62 WT (Homo sapiens, UniProt Q13501 1-440)
# Assay: EMSA; 2.5 mM Mg2+; bacterial tRNA and BSA; EMSA: 20 mM HEPES pH 7.9, 100 mM KCl, 2.5 mM MgCl2, 5 mM DTT, 0.2 mM EDTA, 20% glycerol, 1 mg/mL BSA, 150 nM tRNA, room temperature; NMR: 20 mM MES pH 6.5, 100
# Details: protein: recombinant; tags: MBP; label: 32P (internal alpha-UTP for EMSA; end-labelled for footprinting); base-paired terminal stem, central flexible loop
binder,measurement,value
B1,binding result,binds
